Results on one molecule are retold here after article doi:10.1101/2025.02.17.638454, “Synergistic RAS-MAPK and AKT Activation in MYC-Driven Tumors via Adjacent PVT1 Rearrangements” (bioRxiv, 2025).

The target in the assay is T1, Recombinant KRAS protein (#ab156968, Abcam) (UniProt P01116 1-189).
T1 construct: KRAS, recombinant protein bought from Abcam; source: bought: Abcam (#ab156968), dialyzed into ITC buffer
Put plainly: ITC; twenty 6 ul injections (150 s intervals) of 500 uM HNB into the cell with 93 uM KRAS; 20 mM Tris pH 8.0, 100 mM NaCl, 5 mM beta-mercaptoethanol; 25 C; Affinity ITC (TA Instruments). The conditions noted are these: both partners purified.

T1 sequence (P01116 whole entry): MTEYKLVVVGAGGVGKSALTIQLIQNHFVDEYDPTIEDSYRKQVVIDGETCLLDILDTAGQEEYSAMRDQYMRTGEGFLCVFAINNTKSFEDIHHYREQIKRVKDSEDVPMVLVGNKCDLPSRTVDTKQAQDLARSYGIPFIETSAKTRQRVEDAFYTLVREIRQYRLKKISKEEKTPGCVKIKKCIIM

Regarding MKTQLGAVKGFLHV [Honeybadger (HNB) peptide used for ITC], the Kd amounted to 364 ± 2 µM.
